Test results: patent publication WO2012132067A1 (dated 2012)
Where a chain is given by its changes, count along the chain named. Names may count otherwise.

Legend:
[1] = biological target: T1, human FcRn (human, UniProt P55899 24-290; P61769 21-119, limits assumed); assay: SPR (Biacore), antibody held on immobilised human FcRn, FcγR injected, pH 7.4, 25 C
T1 construct: also called hFcRn

[2] = biological target: T2, human FcγRIa (human, UniProt P12314 16-292, limits assumed); assay: as above
T2 construct: also called hFcgRI; hFcγRIa

[3] = biological target: T3, human FcγRIIb (human, UniProt P31994 43-217, limits assumed); assay: as above
T3 construct: also called hFcgRIIb
T3 sequence: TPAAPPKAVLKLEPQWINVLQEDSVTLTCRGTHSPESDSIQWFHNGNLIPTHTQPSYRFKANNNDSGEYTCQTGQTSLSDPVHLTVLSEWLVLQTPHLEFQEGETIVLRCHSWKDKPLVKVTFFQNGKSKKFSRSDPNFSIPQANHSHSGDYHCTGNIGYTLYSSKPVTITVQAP

[4] = biological target: T4, mouse FcγRI (mouse, UniProt P26151 25-297); assay: as above
T4 sequence (looked up): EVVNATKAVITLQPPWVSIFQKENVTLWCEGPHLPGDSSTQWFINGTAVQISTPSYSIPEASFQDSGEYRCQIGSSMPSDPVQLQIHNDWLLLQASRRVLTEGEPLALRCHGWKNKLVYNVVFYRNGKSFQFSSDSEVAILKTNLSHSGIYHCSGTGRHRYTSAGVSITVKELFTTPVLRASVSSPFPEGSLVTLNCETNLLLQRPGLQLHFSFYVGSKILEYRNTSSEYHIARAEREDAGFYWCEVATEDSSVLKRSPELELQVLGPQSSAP

[5] = biological target: T5, mouse FcγRIIb (mouse, UniProt P08101 30-210, limits assumed); assay: as above
T5 sequence (looked up): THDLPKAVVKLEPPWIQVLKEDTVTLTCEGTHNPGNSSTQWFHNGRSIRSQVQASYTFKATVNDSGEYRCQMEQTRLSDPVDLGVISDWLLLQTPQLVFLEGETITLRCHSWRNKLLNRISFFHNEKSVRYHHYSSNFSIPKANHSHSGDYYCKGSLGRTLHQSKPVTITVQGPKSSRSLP

[6] = biological target: T6, mouse FcγRIII (mouse, UniProt P08508 31-215); assay: as above
T6 sequence (looked up): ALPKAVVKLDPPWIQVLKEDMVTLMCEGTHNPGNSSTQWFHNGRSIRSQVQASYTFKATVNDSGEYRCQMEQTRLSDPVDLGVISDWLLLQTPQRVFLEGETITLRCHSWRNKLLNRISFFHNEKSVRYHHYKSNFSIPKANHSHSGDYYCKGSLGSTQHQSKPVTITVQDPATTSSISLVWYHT

[7] = biological target: T2, human FcγRIa; assay: Biacore, Protein L capture, human FcγR injected, pH 7.4, 25 C (Table 13 not given)
[8] = biological target: T5, mouse FcγRIIb; assay: Biacore, Protein L capture, mouse FcγR injected, pH 7.4, 25 C (Table 7 not given); weaker than F21
[9] = biological target: T6, mouse FcγRIII; assay: as above
[10] = biological target: T5, mouse FcγRIIb; assay: Biacore, Protein L capture, mouse FcγR injected, pH 7.4, 25 C (Table 7 not given); weaker than F157

Measured: binding result

T2 sequence (P12314 16-292 limits assumed): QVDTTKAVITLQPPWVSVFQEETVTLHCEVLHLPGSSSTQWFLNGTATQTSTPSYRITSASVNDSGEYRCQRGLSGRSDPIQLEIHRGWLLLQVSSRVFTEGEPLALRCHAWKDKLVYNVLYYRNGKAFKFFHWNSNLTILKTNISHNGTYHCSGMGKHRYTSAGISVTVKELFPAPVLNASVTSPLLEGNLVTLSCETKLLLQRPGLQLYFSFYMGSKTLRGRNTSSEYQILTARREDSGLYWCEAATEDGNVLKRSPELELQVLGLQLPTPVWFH
T1 sequence (P55899 24-290 limits assumed, chain 1 of 2): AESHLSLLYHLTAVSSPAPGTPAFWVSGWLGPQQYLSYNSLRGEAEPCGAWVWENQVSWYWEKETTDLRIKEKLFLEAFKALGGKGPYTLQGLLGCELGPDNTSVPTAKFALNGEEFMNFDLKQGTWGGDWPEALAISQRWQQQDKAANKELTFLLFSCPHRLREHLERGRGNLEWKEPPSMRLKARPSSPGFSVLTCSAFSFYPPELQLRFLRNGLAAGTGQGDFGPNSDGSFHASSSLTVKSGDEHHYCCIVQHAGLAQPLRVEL
T1 sequence (P61769 21-119 limits assumed, chain 2 of 2): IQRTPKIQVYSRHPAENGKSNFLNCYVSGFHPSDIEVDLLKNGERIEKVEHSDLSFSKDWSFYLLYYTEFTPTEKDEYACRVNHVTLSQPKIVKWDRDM

B1: Fv4-IgG1-F157 (antibody)
heavy: QVQLQESGPGLVKPSETLSLTCAVSGHSISHDHAWSWVRQPPGEGLEWIGFISYSGITNYNPSLQGRVTISRDNSKNTLYLQMNSLRAEDTAVYYCARSLARTTAMDYWGEGTLVTVSSASTKGPSVFPLAPSSKSTSGGTAALGCLVKDYFPEPVTVSWNSGALTSGVHTFPAVLQSSGLYSLSSVVTVPSSSLGTQTYICNVNHKPSNTKVDKKVEPKSCDKTHTCPPCPAPELLGGPSVFLFPPKPKDTLMISRTAEVTCVVVDVSHEDPEVKFNWYVDGVEVHNAKTKPREEQYNSTYRVVSVLTPLHQDWLNGKEYKCKVSNKALPAPIEKTISKAKGQPREPQVYTLPPSRDELTKNQVSLTCLVKGFYPSDIAVEWESNGQPENNYKTTPPVLDSDGSFFLYSKLTVDKSRWQQGNVFSCSVLHEALHYHYTQKSLSLSP
light: DIQMTQSPSSLSASVGDSVTITCQASTDISSHLNWYQQKPGKAPELLIYYGSHLLSGVPSRFSGSGSGTDFTFTISSLEAEDAATYYCGQGNRLPYTFGQGTKVEIERTVAAPSVFIFPPSDEQLKSGTASVVCLLNNFYPREAKVQWKVDNALQSGNSQESVTEQDSKDSTYSLSSTLTLSKADYEKHKVYACEVTHQGLSSPVTKSFNRGEC
notes: VH3-IgG1-F157 with VL3-CK; copies: 2 + 2
binds: [1] | [2] | [3] | [4] | [5] | [6]

B2: VH3/L(WT)-IgG1-F140 (antibody)
heavy: B1 heavy with S241K, M254Y, A259P, L430M
light: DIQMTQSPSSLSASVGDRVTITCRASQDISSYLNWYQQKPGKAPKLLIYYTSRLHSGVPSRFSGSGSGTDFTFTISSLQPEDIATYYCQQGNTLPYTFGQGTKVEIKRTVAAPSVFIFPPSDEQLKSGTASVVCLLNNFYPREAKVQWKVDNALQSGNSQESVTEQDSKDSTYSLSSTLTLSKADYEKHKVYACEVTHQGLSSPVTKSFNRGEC
notes: VH3-IgG1-F21 with S239K (EU); measured with L(WT)-CK; also called Fv4-IgG1-F140; copies: 2 + 2
binds: [7] | [8] | [9]

B3: VH3/L(WT)-IgG1-F424 (antibody)
heavy: B1 heavy with S241K
light: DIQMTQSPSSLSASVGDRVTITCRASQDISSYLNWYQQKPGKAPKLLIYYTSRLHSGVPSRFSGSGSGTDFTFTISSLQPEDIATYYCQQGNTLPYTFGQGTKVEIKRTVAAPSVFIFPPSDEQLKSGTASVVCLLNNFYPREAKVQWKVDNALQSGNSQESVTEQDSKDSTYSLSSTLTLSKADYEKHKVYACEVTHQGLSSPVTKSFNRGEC
notes: VH3-IgG1-F157 with S239K (EU); measured with L(WT)-CK; also called Fv4-IgG1-F424; copies: 2 + 2
binds: [10]
